Results: US20220195070A1 (Chugai, published 2022)
Numbering of substitutions follows the chain as printed.

B1: SKA0117 (antibody, V domains shown)
VH: QSLEESGGDLVKPEGSLTLTCTASGFSFSSSHYMCWVRQAPGKGLEWIACIYAGSSDNTYYASWAKGRFTISKTSSTTVTLQMTSLTAADTATYFCARDTYGYVGYASAGGFFNLWGPGTLVTVSS
VL: ALVMTQTPASVSAAVGGTVTINCQASHNIYSVLAWYQQKPGQRPRLLIYGASNLESGVPSRFKGSGSGTEYTLTISDLECDDAATYYCQSAYYSSSTGDNAFGGGTEVVVKG
notes: Recombinant rabbit monoclonal from B-cell cloning, expressed in FreeStyle 293-F cells; the first screen used B-cell culture supernatant; also called Anti-SG115 Antibody; rabbit Anti Fc-Mutation Antibody
B2: SKA0141 (antibody, V domains shown)
VH: QSLEESGGDLVKPGASLTLTCTASGFSFSSSYYMCWVRQAPGKGLEWIACIYAGSSGSTYYASWAKGRFTISKTSSTTVTLQMTSLTAADTATYFCARDGDENMLVGGYFNLWGPGTLVTVSS
VL: B1 VL with A9S, V32N, R45K, S96N, T97A, D99Y
notes: as for B1
B3: SKA0052 (antibody, V domains shown)
VH: QSLEESGGDLVKSGASLTLTCTASGFSFSSSYYMCWVRQAPGKGLEWIACIYTGSNGDTYYASWANGRFTISKASSTTVTLQMTSLTAADTATYFCARYTYDDDGDYTSFNLWGPGTLVTVSS
VL: ALVMTQTPSSVSADVGGTVTINCQASQNIYRNLAWYQQKPGQRPKLLIYGASNLEPGVPSRFKGSGSGTEFTLTISDLECDDAATYYCQSVGYSGSVDTFFYAFGGGTEVVVKG
notes: as for B1
B4: SKA0171 (antibody, V domains shown)
VH: QSLEESGGGLVQPEGSLTLSCTASGFSFSSSYYMCWVRQAPGKGLEWIACIYGGNSVITYYANWAKGRFTISETSSTTVTLQMTSLTAADTATYFCAREVHYDYLYTTYGYANLWGPGTLVTVSS
VL: AIKMTQTPASVSAVVGGTVTINCQASETIYSGLAWYQQKPGQPPKLLIYDTANLETGVSSRFKGSGSGTEYTLTISDLECDDAATYFCLYAYYSGGSADNAFGGGTEVVVKG
notes: as for B1
B5: SKA0046 (antibody, V domains shown)
VH: QEQLVESGGGLVQPEGSLTLTCTASGFSLSSSNYMWWVRQAPGKGLEWIACIHASSSGDTYYANWAKGRFTISKTSSTTVTLQMTSLTAADTATYFCARGGYIYGDGGYNGVAGFSLWGPGTLVTVSS
VL: DVVMTQTPASVSEPVGGTVTIKCQASETIGNALAWYQQKPGQRPKLLIYGASNLESGVPSRFKGSGSGTEFTLTISDVQCDDAATYYCQSIYYSSSADTFFFPFGGGTEVVVKG
notes: as for B1
B6: SKA0028 (antibody, V domains shown)
VH: QSVEESGGRLVTPGTPLTLTCTASGFTISSYHMSWVRQAPGKGLEWIGIIHGSGNMWYASWAKGRFTISRTSTTVDLEITSPTTEDTATYFCARIRFWASSNYYYFYLWGQGTLVTVSS
VL: ALVMTQTPASVSEPVGGTVTINCQASQNIYSNLAWYQQKPGQRPRLLIYGASNLESGVPSRFRGSGSGTEFTLTISDLECADAATYYCQSAYWGNNNDGAFGGGTEVVVKG
notes: as for B1
B7: SKA0001 (antibody, V domains shown)
VH: QSVEESGGRLVTPGTPLTLTCTVSGFSLSYYAMNWVRQAPGKGLEWIGIIGISGGTYYASWAKGRFTISKSSSTTVDLKMTSPTTEDTATYFCARGGSAWGDLWGQGTLVTVSS
VL: DIVMTQTPSSVSAAVGGTVTINCQASQSISRLLAWYQQKPGQPPKVLMHDASDLASGVPSRFKGSGSGTEYTLTISDLECADAATYYCQSYYWGSSGDIGYPFGGGTEVVVKG
notes: as for B1
B8: SKA0009 (antibody, V domains shown)
VH: QSVEESGGRLVTPGTSLTLTCTVSGIDLSSYGMGWVRQAPGMGLEYIGIIYAAGRTYYASWVKGRFIISKTSTTVDLEMTSLTTEDTATYFCARHGSWYAGMDLWGPGTLVTVSS
VL: AIEMTQTPSPVSAAVGGTVSINCQASEDIENYFAWYQQKPGQPPKLLIYDASELASGVPSRFSGSGSGTDFTLTISGVQCDDAATYYCQHADYAASSENTFGGGTEVVVKG
notes: as for B1
B9: SKA0016 (antibody, V domains shown)
VH: QEQLVESGGGLVQPEGSLTLTCTASGFSFSSSDYMCWVRQAPGKGLEWIACIYIGSNGDTFYASWAKGRFTISKTSSTTVTLQMTSLTAADTATYFCARDSRRADDYGTRLDLWGQGTLVTVSS
VL: DIVMTQTPSSVSAAVGGTVTIKCQASQNIYRNLAWYQQKPGQPPKLLIYQASKLESGVPSRFKGSGSGTEFTLTISDLDCDDAASYYCQSISYISSGDTFFWAFGGGTEVVVKG
notes: as for B1
B10: SKA0027 (antibody, V domains shown)
VH: QEQLVESGGGLVQPEGSLTLTCTASGFSFSSSDYMCWVRQAPGKGLEWIGCIYTGSGSTYYASWAKGRFTISKTSSTTVTLQMTSLTAADTATFFCARRGDSYSNYSFKLWGPGTLVTVSS
VL: AFELTQTPASVEAAVGGTVTIKCQASQNIYSNLAWYQQKPGQPPKLLIYTASSLASGVSSRFKGSGSGTEFTLTISDLECDDAATYYCQCTYINNGYGNTFGGGTEVVVKG
notes: as for B1

Biological target: T1, SG115 (human, UniProt P01857 1-328 = IgG part)
T1 construct: also called modified IgG heavy chain constant region SG115
Assay: ELISA, OD405 against dose (ng/mL, log axis 1-100)

T1 sequence (P01857 other isoform, or with tags, fused parts or gaps limits assumed): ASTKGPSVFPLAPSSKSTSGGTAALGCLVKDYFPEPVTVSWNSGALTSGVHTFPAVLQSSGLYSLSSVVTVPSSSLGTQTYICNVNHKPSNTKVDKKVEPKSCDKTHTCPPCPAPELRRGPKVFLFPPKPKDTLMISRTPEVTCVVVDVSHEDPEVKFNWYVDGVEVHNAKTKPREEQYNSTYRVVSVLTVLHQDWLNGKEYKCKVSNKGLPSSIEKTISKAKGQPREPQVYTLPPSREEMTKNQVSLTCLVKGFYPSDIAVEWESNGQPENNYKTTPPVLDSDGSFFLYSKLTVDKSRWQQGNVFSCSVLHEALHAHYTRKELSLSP

Binder	binding result
B1	binds
B2	binds
B3	binds
B4	binds

Biological target: T2, SG115v1 (human, UniProt P01857 1-328 = IgG part)
T2 construct: Carries the CH2 modifications of SG115 (Arg235, Arg236, Lys239, EU); Construct used in the ELISA is not described beyond the constant region; also called modified IgG heavy chain constant region SG115v1
Assay: ELISA, OD405 against dose (ng/mL, log axis 1-100)

T2 sequence (P01857 other isoform, or with tags, fused parts or gaps limits assumed): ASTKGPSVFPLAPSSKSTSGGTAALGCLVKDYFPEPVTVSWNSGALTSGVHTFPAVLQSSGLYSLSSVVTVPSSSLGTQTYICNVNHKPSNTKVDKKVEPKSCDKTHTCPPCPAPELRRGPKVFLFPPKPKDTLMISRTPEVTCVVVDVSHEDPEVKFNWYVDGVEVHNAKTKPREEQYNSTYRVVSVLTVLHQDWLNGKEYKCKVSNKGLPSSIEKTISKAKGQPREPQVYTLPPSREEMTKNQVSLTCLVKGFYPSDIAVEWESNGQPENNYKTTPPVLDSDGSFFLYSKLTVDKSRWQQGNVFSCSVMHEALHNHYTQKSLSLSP

Binder	binding result
B1	no binding (tested: about 60 ng/mL)
B2	no binding (tested: about 60 ng/mL)
B3	binds
B4	no binding (tested: about 60 ng/mL)

Biological target: T3, Glm (human, UniProt P01857 1-328 = IgG part)
T3 construct: Construct used in the ELISA is not described beyond the constant region; also called G1m
Assay: ELISA, OD405 against dose (ng/mL, log axis 1-100)

T3 sequence (P01857 1-328 D239E/L241M limits assumed): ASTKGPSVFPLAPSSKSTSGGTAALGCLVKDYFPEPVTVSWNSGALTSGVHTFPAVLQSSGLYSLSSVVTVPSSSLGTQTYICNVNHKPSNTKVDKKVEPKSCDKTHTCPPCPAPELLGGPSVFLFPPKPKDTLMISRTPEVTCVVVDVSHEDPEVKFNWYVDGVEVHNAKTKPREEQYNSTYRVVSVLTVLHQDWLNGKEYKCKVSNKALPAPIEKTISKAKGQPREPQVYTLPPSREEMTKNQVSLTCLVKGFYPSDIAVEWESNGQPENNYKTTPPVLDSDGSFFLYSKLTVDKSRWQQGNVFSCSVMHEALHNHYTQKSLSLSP

Binder	binding result
B1	no binding (tested: about 60 ng/mL)
B2	no binding (tested: about 60 ng/mL)
B3	no binding (tested: about 60 ng/mL)
B4	no binding (tested: about 60 ng/mL)

Biological target: T4, SG115v2 (human, UniProt P01857 1-328 = IgG part)
T4 construct: Carries the CH3 modifications of SG115 (Leu428, Ala434, Arg438, Glu440, EU); Construct used in the ELISA is not described beyond the constant region; also called modified IgG heavy chain constant region SG115v2
Assay: ELISA, OD405 against dose (ng/mL, log axis 1-100)

T4 sequence (P01857 other isoform, or with tags, fused parts or gaps limits assumed): as the sequence (P01857 1-328 D239E/L241M limits assumed) above, with A210G, A213S, P214S, M311L, N317A, Q321R, S323E counted along it

Binder	binding result
B1	binds
B2	binds
B3	no binding (tested: about 60 ng/mL)
B4	binds

Biological target: T5, G4d (human, UniProt P01861 1-325 = IgG part)
T5 construct: Construct used in the ELISA is not described beyond the constant region
Assay: ELISA, OD405 against dose (ng/mL, log axis 1-100)

T5 sequence (P01861 1-325 S108P limits assumed): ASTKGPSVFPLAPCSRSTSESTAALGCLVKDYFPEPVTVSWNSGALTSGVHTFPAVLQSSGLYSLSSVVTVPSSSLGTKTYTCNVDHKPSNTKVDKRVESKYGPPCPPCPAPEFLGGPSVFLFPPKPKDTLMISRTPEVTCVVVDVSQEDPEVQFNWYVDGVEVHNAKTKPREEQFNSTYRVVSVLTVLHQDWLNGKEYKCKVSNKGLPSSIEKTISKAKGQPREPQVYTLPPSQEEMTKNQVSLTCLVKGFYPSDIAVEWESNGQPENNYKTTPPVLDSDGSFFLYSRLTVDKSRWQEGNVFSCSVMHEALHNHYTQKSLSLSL

Binder	binding result
B1	no binding (tested: about 60 ng/mL)
B2	no binding (tested: about 60 ng/mL)
B3	no binding (tested: about 60 ng/mL)
B4	no binding (tested: about 60 ng/mL)

Biological target: T1, SG115
Assay: ELISA, OD405 against dose (ng/mL, log axis 1-100)
Remark: another data set of the same source

Binder	binding result
B5	binds
B6	binds
B7	binds
B8	binds
B9	binds
B10	binds

Biological target: T2, SG115v1
Assay: ELISA, OD405 against dose (ng/mL, log axis 1-100)
Remark: another data set of the same source

Binder	binding result
B5	binds
B6	no binding (tested: about 60 ng/mL)
B7	no binding (tested: about 60 ng/mL)
B8	binds
B9	binds
B10	no binding (tested: about 60 ng/mL)

Biological target: T3, Glm
Assay: ELISA, OD405 against dose (ng/mL, log axis 1-100)
Remark: another data set of the same source

Binder	binding result
B5	no binding (tested: about 60 ng/mL)
B6	no binding (tested: about 60 ng/mL)
B7	no binding (tested: about 60 ng/mL)
B8	no binding (tested: about 60 ng/mL)
B9	no binding (tested: about 60 ng/mL)
B10	no binding (tested: about 60 ng/mL)

Biological target: T4, SG115v2
Assay: ELISA, OD405 against dose (ng/mL, log axis 1-100)
Remark: another data set of the same source

Binder	binding result
B5	no binding (tested: about 60 ng/mL)
B6	binds
B7	binds
B8	no binding (tested: about 60 ng/mL)
B9	no binding (tested: about 60 ng/mL)
B10	binds

Biological target: T5, G4d
Assay: ELISA, OD405 against dose (ng/mL, log axis 1-100)
Remark: another data set of the same source

Binder	binding result
B5	no binding (tested: about 60 ng/mL)
B6	no binding (tested: about 60 ng/mL)
B7	no binding (tested: about 60 ng/mL)
B8	no binding (tested: about 60 ng/mL)
B9	no binding (tested: about 60 ng/mL)
B10	no binding (tested: about 60 ng/mL)

Biological target: T6, Anti-IL-8 Antibody
T6 construct: also called anti-human IL-8 antibody; Fc-Mutated Antibody
Assay: SPR (Biacore T200), 25 C, pH 7.4; SKA antibody captured by anti-rabbit IgG, Anti-IL-8 Antibody injected 0-800 nM
Protocol: To confirm the binding ability of Anti Fc-Mutation Antibodies that show selective binding to SG115v1, KD values of Anti Fc-Mutation Antibodies against Anti-IL-8 Antibody at pH 7.4 were determined at 25 degrees C. using Biacore T200 instrument (GE Healthcare). Sequence of Fc region of Anti-IL-8 Antibody has high similarity to that of Anti-hC5 Antibody.
Anti-rabbit IgG (Abbexa) was immobilized onto FC1 and 2 of a CMS sensor chip using an amine coupling kit (GE Healthcare). For the immobilization of anti-rabbit IgG, HBS-EP+, pH7.4 (GE Healthcare) buffer was used as running buffer. After the immobilization, running buffer was changed to Phosphate pH7.4 buffer (50 mM phosphate buffer containing 150 mM NaCl and 0.05 w/v % P-20, pH 7.4). Each Anti Fc-Mutation Antibody was captured onto FC2 of the sensor chip by anti-rabbit IgG. The amount of Anti Fc-Mutation Antibody to be captured was adjusted so that the number of resonance units (RU) was 100. Anti-IL-8 Antibody was injected at 0, 100, 400, and 800 nM at 10 micro L/min. Sensor surface was regenerated after each cycle with 10 mM Glycine-HCl, pH2.0, which was injected at a flow rate of 30 micro L/min. KD values were obtained using Biacore T200 Evaluation software, version 2.0 (GE Healthcare).

T6 sequence (constant, as listed by the source limits assumed): as the sequence (P01857 1-328 D239E/L241M limits assumed) above, with L118R, G119R, A210G, A213S, P214S, M311L, N317A, Y319T, Q321R, S323E counted along it

Binder	Kd	koff	kon
B5	49.6 nM	0.00209 s⁻¹	42000 M⁻¹ s⁻¹
B3	47 nM	0.00431 s⁻¹	91700 M⁻¹ s⁻¹
B8	36.2 nM	0.000904 s⁻¹	25000 M⁻¹ s⁻¹
B9	60 nM	0.00071 s⁻¹	11800 M⁻¹ s⁻¹
